Results as given in US20230203146A1.
Where two headings read alike, the source gives them in different places.

Legend:
[1] = biological target: FLAG-tagged recombinant human Ang1 (Alexis Biochemicals) (human) (UniProt Q15389); assay: competition ELISA, periplasmic extract, FLAG-hAng1 on hTie2/Fc
[2] = biological target: FLAG tagged human Ang2 (Alexis Biochemicals) (human) (UniProt O15123); assay: AlphaScreen competition, periplasmic extract, FLAG-hAng2 / biotin-hTie2/Fc
[3] = biological target: FLAG tagged human Ang2 (Alexis Biochemicals) (human) (UniProt O15123); assay: competition ELISA, periplasmic extract, FLAG-hAng2 on hTie2/Fc
[4] = biological target: N-terminally FLAG-tagged mouse Ang2 (HEK293T conditioned medium) (mouse) (UniProt O35608); assay: competition ELISA, periplasmic extract, FLAG-mAng2 on mTie2/Fc
[5] = biological target: FLAG tagged human Ang2 (Alexis Biochemicals) (human) (UniProt O15123); assay: competition ELISA, FLAG-hAng2 (0.02 nM) on coated hTie2/Fc
[6] = biological target: FLAG tagged human Ang2 (Alexis Biochemicals) (human) (UniProt O15123); assay: as above; remark: listed apart in the source

Sequence of FLAG tagged human Ang2 (Alexis Biochemicals) (human) (O15123 19-496): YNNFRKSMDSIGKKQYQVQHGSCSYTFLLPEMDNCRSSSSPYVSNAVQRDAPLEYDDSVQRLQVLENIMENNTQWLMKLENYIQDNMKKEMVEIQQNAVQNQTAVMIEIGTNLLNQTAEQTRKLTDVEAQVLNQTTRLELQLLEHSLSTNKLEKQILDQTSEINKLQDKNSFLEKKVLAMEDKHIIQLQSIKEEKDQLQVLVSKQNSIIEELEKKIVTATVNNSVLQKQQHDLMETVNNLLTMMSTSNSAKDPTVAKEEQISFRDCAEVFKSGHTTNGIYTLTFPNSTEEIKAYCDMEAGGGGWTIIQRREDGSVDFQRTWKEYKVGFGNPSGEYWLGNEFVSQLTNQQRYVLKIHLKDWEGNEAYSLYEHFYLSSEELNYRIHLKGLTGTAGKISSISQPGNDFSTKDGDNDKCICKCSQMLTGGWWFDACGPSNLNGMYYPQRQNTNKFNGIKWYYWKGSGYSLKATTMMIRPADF
Sequence of FLAG-tagged recombinant human Ang1 (Alexis Biochemicals) (human) (Q15389 20-498 limits assumed): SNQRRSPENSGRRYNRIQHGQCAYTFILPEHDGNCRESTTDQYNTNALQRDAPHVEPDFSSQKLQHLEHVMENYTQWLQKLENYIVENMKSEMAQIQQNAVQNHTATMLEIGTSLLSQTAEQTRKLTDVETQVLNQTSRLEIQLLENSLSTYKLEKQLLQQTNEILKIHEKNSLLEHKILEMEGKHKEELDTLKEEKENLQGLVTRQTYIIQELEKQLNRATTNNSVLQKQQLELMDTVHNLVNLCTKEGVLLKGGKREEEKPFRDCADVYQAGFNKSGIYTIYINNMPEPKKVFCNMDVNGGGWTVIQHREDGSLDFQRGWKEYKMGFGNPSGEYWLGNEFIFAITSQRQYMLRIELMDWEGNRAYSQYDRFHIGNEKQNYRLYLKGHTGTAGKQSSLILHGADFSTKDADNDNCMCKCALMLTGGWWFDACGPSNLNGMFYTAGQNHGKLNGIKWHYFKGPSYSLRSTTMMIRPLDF
Sequence of N-terminally FLAG-tagged mouse Ang2 (HEK293T conditioned medium) (mouse) (O35608 19-496 limits assumed): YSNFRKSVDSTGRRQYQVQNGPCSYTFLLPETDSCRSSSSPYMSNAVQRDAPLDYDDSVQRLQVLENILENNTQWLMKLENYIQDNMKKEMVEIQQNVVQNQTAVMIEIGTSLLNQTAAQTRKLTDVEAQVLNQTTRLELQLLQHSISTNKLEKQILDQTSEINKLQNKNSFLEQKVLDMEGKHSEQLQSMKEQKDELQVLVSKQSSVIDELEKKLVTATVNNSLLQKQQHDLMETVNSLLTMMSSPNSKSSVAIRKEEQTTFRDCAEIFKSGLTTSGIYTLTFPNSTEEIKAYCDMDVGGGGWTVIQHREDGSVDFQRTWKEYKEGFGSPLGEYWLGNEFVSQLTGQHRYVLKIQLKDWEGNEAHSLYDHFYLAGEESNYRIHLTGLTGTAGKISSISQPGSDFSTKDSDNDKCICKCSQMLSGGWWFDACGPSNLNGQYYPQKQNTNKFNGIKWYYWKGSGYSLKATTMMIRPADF

Binder	% inh [1] [%]	% inh [2] [%]	% inh [3] [%]	% inh [4] [%]	IC50 [5] [nM]	IC50 [6] [nM]
VHH 25D08 (VHH, not shown: small tags and cut ends) VHH: EVQLVESGGGLVQAGGSLRLSCAASGFTFDDYAIGWFRQAPGKDLEGVSCISSSDGSTYYADSVKGRFTISSDNAKNTVYLQMNSLKPEDTAVYYCAAVNGLGPFSVPVPVYDFWGQGTQVTVSS	10	78	94	6		
VHH 25G04 (VHH, not shown: small tags and cut ends) VHH: EVQLVESGGGLVQPGGSLRLSCAASGFTFGSYDMSWVRQAPGKGPEWVSAINSRGGSTYYADSVKGRFTISRDNAKNTLYLQMNSLKPEDTAVYYCATDPYSLSYYGYPLYDYWGQGTQVTVSS		90	87	9		
VHH 12A08 (VHH, not shown: small tags and cut ends) VHH: EVQLVESGRGLVQAGGSLRLSCAASGSIFSINAMLWYRQAPGKQRELVAAITSGGSTNYADSVKGRFTISRDNAKNTVYLQMNSLKPEDTAVYYCAADSDYSSDYYYWGQGTQVTVSS		98	0	2		
VHH 25F01 (VHH, not shown: small tags and cut ends) VHH: EVQLVESGGGLVQAGGSLRLSCAVSGLPFDDYVIGWFRQAPGKEREGVSCISSSDGSTYYADSVKGRFTISSDNAKNTVYLQMNSLKPEDTAAYYCAAGGPRINIATMTCSHDEYEYDYWGQGTQVTVSS	14	67	85			6.5
VHH 29B08 (VHH, not shown: small tags and cut ends) VHH: EVQLVESGGGVVQAGDSVRLSCAASGPTFRSYTMAWFRQTPGKERDIVAAISSSLGRTYYADSVKGRFQILRDNAKETVWLQMNSLKPEDTAVYICAASRSLNLAYTTKPYDYWGQGTQVTVSS		60	112	63		

Other lines, results leading:

% inh [1] [%]	% inh [2] [%]	% inh [3] [%]	% inh [4] [%]	IC50 [5] [nM]	IC50 [6] [nM]	Binder
	52		4			VHH 14A08 (VHH, not shown: small tags and cut ends) VHH: EVQLVESGGGLVQAGGSLRLSCASSGFTFDDYAIGWFRQAPGKEREGVSCISSSDGSTYYADSVKGRFTISSDNAKNTVYLQMNSLKPEDTAVYYCAARPPFHSCSEYENDYWGQGTQVTVSS
17	55	112		4		VHH 32H10 (VHH, not shown: small tags and cut ends) VHH: EVQLVESGGGLVQAGGSLRLSCAASGFDFEDYDMGWFRQAPGKEREGVSYISSSDGSTYYTDSVKGRFTISSDNAKNTVYLQMNSLIPEDTAVYYCAARPWTRRVYGSSWLARSLDEYEYDYWGQGTQVTVSS
